Patent US20250043302A1, “MUTATED HYDROXYPHENYLPYRUVATE DIOXYGENASE POLYPEPTIDE, AND CODING GENE AND USE THEREOF” (BEIJING DABEINONG BIOTECHNOLOGY CO., LTD., priority 2021, published 2025)

Key:
Format in all cases: in vivo
[1] = tested on: Arabidopsis thaliana T1 plants; test: Topramezone tolerance of transgenic Arabidopsis thaliana T1 plants (spray, bleached leaf area grade, damage score); conditions: 7 DAT, Table 4; for Classification and statistics of the grade of pesticide damage: Grade 0 / Classification and statistics of the grade of pesticide damage: Grade 1 / Classification and statistics of the grade of pesticide damage: Grade 2 / Classification and statistics of the grade of pesticide damage: Grade 3: number of plants; for Scores: pesticide damage score 0-100
Procedure, shortened: (§1)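 Damage graded 0–3 from the proportion of bleached leaf area 7 days after spraying. Plants were glufosinate-selected T1 lines, 18 days after sowing, plus vector and wild-type controls. Rates: mesotrione 52.5–420, isoxaflutole 35–280, topramezone 25–200 g ai/ha, with water (0×).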

[2] = tested on: Arabidopsis thaliana T1 plants; test: Isoxaflutole tolerance of transgenic Arabidopsis thaliana T1 plants (spray, bleached leaf area grade, damage score); set-up: Scores (pesticide damage): scale not given here; conditions: spray, Arabidopsis thaliana T1 plants; for Classification and statistics of the grade of pesticide damage: Grade 0 (number of plants) / Classification and statistics of the grade of pesticide damage: Grade 1 (number of plants) / Classification and statistics of the grade of pesticide damage: Grade 2 (number of plants) / Classification and statistics of the grade of pesticide damage: Grade 3 (number of plants): 16 plants
Procedure, shortened: as §1

[3] = tested on: Arabidopsis thaliana T1 plants; test: Mesotrione tolerance of transgenic Arabidopsis thaliana T1 plants (spray, bleached leaf area grade, damage score); set-up: Scores: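 damage score 0-100 computed as Σ(N×S)/(T×M)×100 over grades 0-3 with higher meaning more damage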; conditions: Arabidopsis thaliana T1 plants; for Grade 0 (classification and statistics of the grade of pesticide damage; number of plants) / Grade 1 (classification and statistics of the grade of pesticide damage; number of plants) / Grade 2 (classification and statistics of the grade of pesticide damage; number of plants) / Grade 3 (classification and statistics of the grade of pesticide damage; number of plants): 16 plants
Procedure, shortened: as §1

[4] = isoxaflutole 35 g ai/ha (0.5x field concentration)
[5] = isoxaflutole 70 g ai/ha (1x field concentration)

B1: GsHPPD-02: nucleotide sequence encoding wild-type Gossypium hirsutum HPPD; vector DBN11738 (nucleic acid)
DNA: ATGGTTCAAACAAATCAATCTGGTTCTGGGAATGATTTCAAGCTGGTTGGTTTCTCAAATTTTGTGCGTAGCAATCCCAAATCAGACCGCTTCACGGTCAAGAGATTCCACCACATTGAATTTTGGTGCACTGATGCCACTAATGTGGCGAGGAGGTTTTCATGGGGTTTAGGGATGCAGTTCGTCGCCAAGAGTGACCTCTCCACAGGAAATTTGACGCATGCAAGCTACCTGCTGCGGAGCCGCGACTTGAATTTCCTGTTTACAGCACCATATTCACCCAGTATTGCAGTTGCTCAAAACCTTTCGCCACAAAGCACTGCTTCCATACCTTCATTTGATCACTCGCTTTGTCGGTCCTTTGCTGCAACACATGGACTTGGCGTCAGAGCAATTGCCATCGAGGTGGACGACGCCGAAACTGCCTTCACCACGAGCGTGACACATGGCGCGCTCCCTTTTTGTCCACCAACACCACTAGGAGATGTGGCTACAATTGCTGAAGTTAAATTATATGGTGATGTTGTGCTCAGATATGTTTCTTACACCACAACCATCAACTCCGACCATGATTTTCTGCCTGGTTTTGAGAAGATTGAAGATACTCTATCGTATCCTTTGGATTATGGCCTGCGTCGGCTCGATCATGCTGTTGGCAACGTACCTGAATTAGGTCCTGCTGTATCTTATGTGAAATCTTTTACTGGGTTCCATGAGTTTGCAGAGTTCACCGCTGAGGATGTAGGAACAAGTGAATCTGGGCTGAACTCAGTTGTTTTGGCCAACAATGAGGAAATGGTCCTCTTACCAATGAACGAGCCGGTGTTCGGCACTAAGCGCAAATCTCAAATACAGACCTACTTGGAGCACAATGAAGGAGCTGGTGTGCAGCACCTCGCCCTCGTCTCGGAGGACATCTTCAAAACTTTAAGGGAGATGAGGAAACGATCCTTTGTGGGAGGATTTGAATTCATGCCTTCTCCGCCGCCGACATACTACAAGAAGCTCAAGCAGCGCGCGGGGGACATTTTGTCTGATGAGCAGATCAAGGAGTGTGAAGAGCTTGGGATTCTTGTTGATAGAGATGATCAAGGAACGCTTCTGCAGATATTTACCAAGCCCGTCGGCGACCGGCCTACTATATTCATTGAGATCATCCAGAGAATTGGTTGCATGGTGAAGGATGAAGAAGGGAAACAGTACCAGAAGGGCGGCTGCGGCGGGTTTGGAAAAGGAAACTTCAGTGAGCTGTTTAAAAGTATAGAGGAGTATGAAAAGAGCTTGGAAGCAAAACAATCACAAAATCCATGA
modifications: GsHPPD-02 Nucleotide Sequence
notes: vector DBN11738
For B1, the “Classification and statistics of the grade of pesticide damage: Grade 0” value ([1]; topramezone 25 g ai/ha (1×)) was 0, the “Classification and statistics of the grade of pesticide damage: Grade 1” value ([1]; topramezone 25 g ai/ha (1×)) was 0 and the “Classification and statistics of the grade of pesticide damage: Grade 2” value ([1]; topramezone 25 g ai/ha (1×)) was 0. For the same molecule, the “Classification and statistics of the grade of pesticide damage: Grade 3” value ([1]; topramezone 25 g ai/ha (1×)) was 16, the “Classification and statistics of the grade of pesticide damage: Grade 0” value ([1]; topramezone 100 g ai/ha (4×)) was 0 and the “Classification and statistics of the grade of pesticide damage: Grade 1” value ([1]; topramezone 100 g ai/ha (4×)) was 0. The “Classification and statistics of the grade of pesticide damage: Grade 2” value ([1]; topramezone 100 g ai/ha (4×)) was 0, the “Classification and statistics of the grade of pesticide damage: Grade 3” value ([1]; topramezone 100 g ai/ha (4×)) was 16 and the Scores ([1]; topramezone 25 g ai/ha (1×)) was 100. For the same molecule, the Scores ([1]; topramezone 100 g ai/ha (4×)) was 100, the Resistance evaluation ([1]; topramezone 25 g ai/ha (1×)) was “non-resistant (non-resistant plants (scores 68-100))” and the Resistance evaluation ([1]; topramezone 100 g ai/ha (4×)) was “non-resistant (non-resistant plants (scores 68-100))”. For the same molecule, the Resistance evaluation [2, 4] was “Non-resistant”, the “Scores (pesticide damage)” value [2, 4] was 100 and the “Classification and statistics of the grade of pesticide damage: Grade 0 (number of plants)” value [2, 4] was 0. The “Classification and statistics of the grade of pesticide damage: Grade 1 (number of plants)” value [2, 4] was 0, the “Classification and statistics of the grade of pesticide damage: Grade 2 (number of plants)” value [2, 4] was 0 and the “Classification and statistics of the grade of pesticide damage: Grade 3 (number of plants)” value [2, 4] was 16. For the same molecule, the Resistance evaluation [2, 5] was “Non-resistant”, the “Scores (pesticide damage)” value [2, 5] was 100 and the “Classification and statistics of the grade of pesticide damage: Grade 0 (number of plants)” value [2, 5] was 0. For the same molecule, the “Classification and statistics of the grade of pesticide damage: Grade 1 (number of plants)” value [2, 5] was 0, the “Classification and statistics of the grade of pesticide damage: Grade 2 (number of plants)” value [2, 5] was 0 and the “Classification and statistics of the grade of pesticide damage: Grade 3 (number of plants)” value [2, 5] was 16. The Resistance evaluation ([3]; mesotrione 52.5 g ai/ha) was “Non-resistant”, the Scores ([3]; mesotrione 52.5 g ai/ha) was 100 and the “Grade 0 (classification and statistics of the grade of pesticide damage; number of plants)” value ([3]; mesotrione 52.5 g ai/ha) was 0. The “Grade 1 (classification and statistics of the grade of pesticide damage; number of plants)” value ([3]; mesotrione 52.5 g ai/ha) was 0, the “Grade 2 (classification and statistics of the grade of pesticide damage; number of plants)” value ([3]; mesotrione 52.5 g ai/ha) was 0 and the “Grade 3 (classification and statistics of the grade of pesticide damage; number of plants)” value ([3]; mesotrione 52.5 g ai/ha) was 16. For the same molecule, the Resistance evaluation ([3]; mesotrione 105 g ai/ha) was “Non-resistant”, the Scores ([3]; mesotrione 105 g ai/ha) was 100 and the “Grade 0 (classification and statistics of the grade of pesticide damage; number of plants)” value ([3]; mesotrione 105 g ai/ha) was 0. The “Grade 1 (classification and statistics of the grade of pesticide damage; number of plants)” value ([3]; mesotrione 105 g ai/ha) was 0, the “Grade 2 (classification and statistics of the grade of pesticide damage; number of plants)” value ([3]; mesotrione 105 g ai/ha) was 0 and the “Grade 3 (classification and statistics of the grade of pesticide damage; number of plants)” value ([3]; mesotrione 105 g ai/ha) was 16.
